Measurements as given in patent publication US20200095340A1.

target: biotinylated human DLL3 protein expressed as a human IgG1 fusion protein (human) (UniProt Q9NYJ7); test: Octet BLI; biotinylated huDLL3-IgG1 fusion on streptavidin tips; single 50 nM; conditioned medium
Sequence (Q9NYJ7 other isoform, or with tags, fused parts or gaps): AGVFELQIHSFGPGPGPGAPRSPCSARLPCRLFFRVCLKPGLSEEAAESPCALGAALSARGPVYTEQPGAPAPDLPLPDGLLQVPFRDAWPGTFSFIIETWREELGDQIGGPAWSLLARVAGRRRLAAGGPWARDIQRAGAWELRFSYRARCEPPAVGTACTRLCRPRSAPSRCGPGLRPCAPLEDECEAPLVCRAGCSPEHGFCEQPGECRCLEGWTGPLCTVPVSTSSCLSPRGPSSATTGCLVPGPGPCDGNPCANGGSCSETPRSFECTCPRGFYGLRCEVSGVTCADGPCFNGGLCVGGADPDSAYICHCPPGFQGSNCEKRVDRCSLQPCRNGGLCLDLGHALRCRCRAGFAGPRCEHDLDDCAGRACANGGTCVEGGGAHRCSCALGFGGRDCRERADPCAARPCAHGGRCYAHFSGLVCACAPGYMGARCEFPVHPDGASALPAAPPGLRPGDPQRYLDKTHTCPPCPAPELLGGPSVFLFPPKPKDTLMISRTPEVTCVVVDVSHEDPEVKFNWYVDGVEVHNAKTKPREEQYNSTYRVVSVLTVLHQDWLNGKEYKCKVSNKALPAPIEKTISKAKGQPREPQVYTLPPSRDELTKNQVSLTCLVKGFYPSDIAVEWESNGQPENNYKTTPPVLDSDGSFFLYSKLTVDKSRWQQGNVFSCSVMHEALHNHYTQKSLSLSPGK

Row | Binder | Kd [nM]
1 | anti-DLL3 trispecific protein 1H07 (protein, part only; not given: anti-CD3 fragment and anti-albumin sdAb, part only) chain, part: EVQLVESGGGLVQPGGSLTLSCVASGSTSSINAFGWYRRAPGKQRELVAGISSDGSKVYSDSVKGRFTISRDNAKNSVYLQMNSLRAEDTAVYYCYYFRTVSGSSMRYWGQGTLVTVSSGGGGSGGGSGGGGSGGGSHHHHHH | 6.2
2 | anti-DLL3 trispecific protein 2D04 (protein, part only; not given: CD3 binder and albumin binder, part only) chain, part: EVQLVESGGGLVQPGGSLTLSCVASGSTSSINAVGWYRRAPGKQRELVAGISSDGSKVYRDSVKGRFTISRDNAKNSVYLQMNSLRAEDTAVYYCYYFRTVQGSSMRYWGQGTLVTVSSGGGGSGGGSGGGGSGGGSHHHHHH | 6.2
3 | anti-DLL3 trispecific protein 3A09 (protein, part only; not given: CD3 binder and albumin binder, part only) chain, part: EVQLVESGGGLVQPGGSLTLSCAASGSSVSFLSMAWYRQAPGKKRELVAGISADGSVDYIDSVKGRFTISRDNAKNSVYLQMNSLRAEDTAVYYCYAYRWTTRYIYWGQGTLVTVSSGGGGSGGGSGGGGSGGGSHHHHHH | 6.3
4 | anti-DLL3 trispecific protein 2H04 (protein, part only; not given: anti-CD3 fragment and anti-albumin domain, part only) chain, part: EVQLVESGGGLVQPGGSLTLSCVASGSTSSINAMGWYRRAPGKQRELVAGISSDTSKVYADSVKGRFTISRDNAKNSVYLQMNSLRAEDTAVYYCYYFRTVSGSYMRYWGQGTLVTVSSGGGGSGGGSGGGGSGGGSHHHHHH | 6.3
5 | anti-DLL3 trispecific protein 1F010 (protein, part only; not given: anti-CD3 fragment and anti-albumin sdAb, part only) chain, part: EVQLVESGGGLVQPGGSLTLSCVASGSTSRINAMGWYRRAPGKQRELVAGISSDGSKVYKDSVKGRFTISRDNAKNSVYLQMNSLRAEDTAVYYCYYFRTVSGSSMRYWGQGTLVTVSSGGGGSGGGSGGGGSGGGSHHHHHH | 6.3
6 | anti-DLL3 trispecific protein 1A03 (protein, part only; not given: CD3 fragment and albumin sdAb, part only) chain, part: EVQLVESGGGLVQPGGSLTLSCVASGSTSSINAMAWYRRAPGKQRELVAGISSDGSKVYADSVKGRFTISRDNAKNSVYLQMNSLRAEDTAVYYCYYFRTVSGSSSRYWGQGTLVTVSSGGGGSGGGSGGGGSGGGSHHHHHH | 6.3
7 | anti-DLL3 trispecific protein 2C09 (protein, part only; not given: anti-CD3 and anti-albumin domains, part only) chain, part: EVQLVESGGGLVQPGGSLTLSCVPSGSTSNINAMGWYRRAPGKQRELPAGISSDGTKIYADSAKVPFTITRDNAKNSVYLQMNSLRAEDTAVYYCYYFRTVSGTSMRYWGQGTLVTVSSGGGGSGGGSGGGGSGGGSHHHHHH | 6.4
8 | anti-DLL3 trispecific protein 2H010 (protein, part only; not given: CD3 fragment and albumin sdAb, part only) chain, part: EVQLVESGGGLVQPGGSLTLSCVASGSTSSINAMGWYRRAPGKQRELAAGISSDGSKLYADSVKGRFTISRDNAKNSVYLQMNSLRAEDTAVYYCYYFRTVSGSSMRYWGQGTLVTVSSGGGGSGGGSGGGGSGGGSHHHHHH | 6.4
9 | anti-DLL3 trispecific protein 4D05 (protein, part only; not given: anti-CD3 fragment and anti-albumin domain, part only) chain, part: EVQLVESGGGLVQPGGSLTLSCAASGSSSSFLSMAWYRQAPGKKRELVAGISADGSTVYIDSVKGRFTISRDNAKNSVYLQMNSLRAEDTAVYYCYAYRWTTRRTYWGQGTLVTVSSGGGGSGGGSGGGGSGGGSHHHHHH | 6.5
10 | anti-DLL3 trispecific protein 2G07 (protein, part only; not given: anti-CD3 and anti-albumin domains, part only) chain, part: EVQLVESGGGLVQPGGSLTLSCVASGSTSSINAMAWYRRAPGKQRELVAGISSDGSKVYADSVKGRFTISRDNAKNSVYLQMNSLRAEDTAVYYCYYFRTVQGSSMRYWGQGTLVTVSSGGGGSGGGSGGGGSGGGSHHHHHH | 6.5
11 | anti-DLL3 trispecific protein 1A010 (protein, part only; not given: anti-CD3 fragment and anti-albumin domain, part only) chain, part: EVQLVESGGGLVQPGGSLTLSCVASGSTSSINAYGWYRRAPGKQRELVAGISSDGSKVYADSVKGRFTISRDNAKNSVYLQMNSLRAEDTAVYYCYYFRTVYGSSMRYWGQGTLVTVSSGGGGSGGGSGGGGSGGGSHHHHHH | 6.5
12 | anti-DLL3 trispecific protein 2F09 (protein, part only; not given: anti-CD3 fragment and anti-albumin domain, part only) chain, part: EVQLVESGGGLVQPGGSLTLSCVASGSTSSINAMAWYRRAPGKQRELVAGISSDGSKLYADSVKGRFTISRDNAKNSVYLQMNSLRAEDTAVYYCYYFRTVSGSSMRYWGQGTLVTVSSGGGGSGGGSGGGGSGGGSHHHHHH | 6.5
13 | anti-DLL3 trispecific protein 2B02 (protein, part only; not given: CD3 binder and albumin binder, part only) chain, part: EVQLVESGGGLVQPGGSLTLSCVASGSTSSINAMAWYRRAPGKQRELVAGISSDGSKVYADSVKGRFTISRDNAKNSVYLQMNSLRAEDTAVYYCYYFRTKSGSSMRYWGQGTLVTVSSGGGGSGGGSGGGGSGGGSHHHHHH | 6.6
14 | anti-DLL3 trispecific protein 4C03 (protein, part only; not given: CD3 fragment and albumin sdAb, part only) chain, part: EVQLVESGGGLVQPGGSLTLSCAASGSKVSFMSMAWYRQAPGKKRELVAGISVDGSTDYIDSVKGRFTISRDNAKNSVYLQMNSLRAEDTAVYYCYAYRWRTRYTYWGQGTLVTVSSGGGGSGGGSGGGGSGGGSHHHHHH | 6.6
15 | anti-DLL3 trispecific protein 2D06 (protein, part only; not given: anti-CD3 and anti-albumin domains, part only) chain, part: EVQLVESGGGLVQPGGSLTLSCVASGSTSSINAMGWYRRAPGKQRELVAGISSDGSKVYSDSVKGRFTISRDNAKNSVYLQMNSLRAEDTAVYYCYYFRTVSGSSSRYWGQGTLVTVSSGGGGSGGGSGGGGSGGGSHHHHHH | 6.6
16 | anti-DLL3 trispecific protein 1G01 (protein, part only; not given: CD3 binder and albumin binder, part only) chain, part: EVQLVESGGGLVQPGGSLTLSCVASGSTSSINAMAWYRRAPGKQRELVAGISSDGSKVYAESVKGRFTISRDNAKNSVYLQMNSLRAEDTAVYYCYYFRTVSGASMRYWGQGTLVTVSSGGGGSGGGSGGGGSGGGSHHHHHH | 6.6
17 | anti-DLL3 trispecific protein 2C06 (protein, part only; not given: CD3 binder and albumin binder, part only) chain, part: EVQLVESGGGLVQPGGSLTLSCVASGSTNSINAMGWYRRAPGKQRELVAGISSDGSKVYKDSVKGRFTISRDNAKNSVYLQMNSLRAEDTAVYYCYYYRTVSGSSMRYWGQGTLVTVSSGGGGSGGGSGGGGSGGGSHHHHHH | 6.7
18 | anti-DLL3 trispecific protein 4C02 (protein, part only; not given: CD3 fragment and albumin sdAb, part only) chain, part: EVQLVESGGGLVQPGGSLTLSCAASGSKVSFLSMAWYRQAPGKKRELVAGISADGSTTYIDSVKGRFTISRDNAKNSVYLQMNSLRAEDTAVYYCYAYRWTTRFTYWGQGTLVTVSSGGGGSGGGSGGGGSGGGSHHHHHH | 6.8
19 | anti-DLL3 trispecific protein 2C04 (protein, part only; not given: anti-CD3 fragment and anti-albumin sdAb, part only) chain, part: EVQLVESGGGLVQPGGSLTLSCVASGSTSSRNAMGWYRRAPGKQRELVAGISSDGSKLYADSVKGRFTISRDNAKNSVYLQMNSLRAEDTAVYYCYYFRTVLGSSMRYWGQGTLVTVSSGGGGSGGGSGGGGSGGGSHHHHHH | 6.8
20 | anti-DLL3 trispecific protein 3A011 (protein, part only; not given: CD3 binder and albumin binder, part only) chain, part: EVQLVESGGGLVQPGGSLTLSCAASGSSVSFLSLAWYRQAPGKKRELVAGISTDGSTDYIDSVKGRFTISRDNAKNSVYLQMNSLRAEDTAVYYCYAYRWRTRYTYWGQGTLVTVSSGGGGSGGGSGGGGSGGGSHHHHHH | 6.8
21 | anti-DLL3 trispecific protein 1G011 (protein, part only; not given: CD3 binder and albumin binder, part only) chain, part: EVQLVESGGGLVQPGGSLTLSCVASGSTSSINAMAWYRRAPGKQRELVAGISSDGSKVYADSVKGRFTISRDNAKNSVYLQMNSLRAEDTAVYYCYYFKTVSGSSMRYWGQGTLVTVSSGGGGSGGGSGGGGSGGGSHHHHHH | 6.8
22 | anti-DLL3 trispecific protein 4C06 (protein, part only; not given: CD3 fragment and albumin sdAb, part only) chain, part: EVQLVESGGGLVQPGGSLTLSCAASNSSVSKLSMAWYRQAPGKKRELVAGISADGSTAYIDSVKGRFTISRDNAKNSVYLQMNSLRAEDTAVYYCYAYRWSTRYTYWGQGTLVTVSSGGGGSGGGSGGGGSGGGSHHHHHH | 6.8
